Test [1] addresses RPTPσ (transfected in 293T/17 cells for native PAGE) (not stated (human or mouse cDNA cloned)). In words: native gel or EMSA; lysates (NP-40 buffer) of RPTPσ-transfected 293T/17 cells in Coomassie blue sample buffer, native PAGE, western blot; cells untreated or treated with CSPG for 30 min. On the technique in general: A gel shift assay detects complexes by their altered migration in electrophoresis.

The target in test [2] is RPTPσ FC (full-length RPTPσ fused to FKBP-Cluc) (not stated (human or mouse cDNA cloned) | not stated). In words: split reporter (BiFC, NanoBiT); split firefly luciferase; 293T/17 cells co-transfected with RPTPσ FN/FC, 48 h, rapamycin for 4 hr against DMSO control.

This is an account of results in article PMC5449173.

For orientation: stoichiometry N means a count of units in the complex or per binding partner. As to “RPTPσ (transfected in 293T/17 cells for native PAGE) (receptor)”, in test [1], the stoichiometry N is 2. As for “RPTPσ FN (full-length RPTPσ fused to FRB-Nluc)”, in test [2], the fold increase of bioluminescence with rapamycin against control cells stood at 3 fold.
